The assay concerns the target T1, mouse TfR (mouse, UniProt Q62351 89-763, limits assumed).
T1 construct: The assay and the form of the protein are not described
Put plainly: not described.

T1 sequence (Q62351 89-763 limits assumed): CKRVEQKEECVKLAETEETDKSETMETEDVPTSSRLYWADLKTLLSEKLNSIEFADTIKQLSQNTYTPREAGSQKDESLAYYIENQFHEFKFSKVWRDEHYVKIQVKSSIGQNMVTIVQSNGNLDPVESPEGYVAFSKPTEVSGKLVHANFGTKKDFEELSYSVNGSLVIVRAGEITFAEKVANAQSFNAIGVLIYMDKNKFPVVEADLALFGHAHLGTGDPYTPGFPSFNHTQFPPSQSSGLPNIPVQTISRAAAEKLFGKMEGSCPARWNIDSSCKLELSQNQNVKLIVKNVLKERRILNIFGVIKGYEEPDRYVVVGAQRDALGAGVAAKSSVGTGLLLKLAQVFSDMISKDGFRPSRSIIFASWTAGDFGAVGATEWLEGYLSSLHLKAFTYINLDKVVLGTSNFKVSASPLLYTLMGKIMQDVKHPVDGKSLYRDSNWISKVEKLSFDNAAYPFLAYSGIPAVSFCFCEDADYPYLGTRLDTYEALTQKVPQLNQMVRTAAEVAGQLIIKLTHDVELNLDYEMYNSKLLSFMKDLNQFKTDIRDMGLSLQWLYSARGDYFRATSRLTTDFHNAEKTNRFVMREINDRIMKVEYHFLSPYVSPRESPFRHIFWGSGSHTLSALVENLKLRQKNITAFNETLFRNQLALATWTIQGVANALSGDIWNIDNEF

B1: TfR436 antibody (antibody, V domains shown)
VH: DVQLVQSGGGVVQPGRSLRLSCAASGFPFKSYGMHWVRQAPGKGLEWVAVISYDGSNKYYADSVKGRFTISRDNSKNTLYLQMNSLRGEDTAVYYCARDSNFWSGYYSPVDVWGQGTTVTVSS
VL: NFMLTQPHSVSESPGKTVTISCTRSSGSIASNSVQWYQQRPGSAPITVIYEDTQRPSGVPDRFSGSIDSSSNSASLTISGLQTEDEADYYCQSYDSAYHWVFGGGTKLAVL
notes: The antibody is the one of paragraphs 0090 and 0091 of WO2014/073641 and was detected with an anti-human IgG Fc gamma secondary antibody; also called parent antibody
On to B1, for which the binding result is reported as “no binding”.

These data come from patent US20240288453A1 (NATIONAL UNIVERSITY CORPORATION TOKAI NATIONAL HIGHER …, published 2024).
